Measured values as given in the supplement of paper PMC9170038.

Tested on: K4 kissing-loop RNA reporter
Experiment: apparent KD of K4 kissing-loop reporter; higher = weaker reporter binding
Conditions: Eterna round: R107; input ligand: FMN 200 uM
Description: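 RNA-MaP round R107: designed RNA switches with theophylline, tryptophan, arginine or FMN aptamers are transcribed on-chip within common flanks. They are titrated with a labelled K4 kissing-loop RNA reporter in RNA-MaP buffer (100 mM Tris pH 7.5, 80 mM KCl, 4 mM MgCl2), without ligand or with the indicated ligand. Median apparent KD per design.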
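Also: bound reporter read as fluorescence of individual clusters on recovered sequencing chips by microscopy, with normalized cluster intensities fitted with a binding model.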

Sequence | apparent KD of K4 kissing-loop reporter [µM]
AGCAGGAGUGAUGUUCCUGUGGCAUAAGUUCGAGGACCGGUACGGCCGCCACUCGUAACAUUAAUCCGUCCUUGAUCAGAUAAGA [theeternabot_sameState_KL_Trp_A_12] | 0.195
AGGCACGAGCAAGGAUAUCGAGUAGAGUGAUGUUCUGCCUGGGUUGGCUCGGAAGAGCCUUCUCAGCGAGAAGGUGCUCGUGCCU [#2 Same State - FMN A Attempt #19 (HarryS)] | 0.235
GCAGUGAUGUUGCUGGUGUGCAGUGGUAGUCGAGGACCGGUACGGCCGCCACUCGGUGAGAACCUGCUAAUACAUCGAUAAGUGA [XVIII] | 0.55
AAGAGUUGACGAAAAGUCAACUCACGAGAAGGAGCGCACGAAAGUGCAGGUAGGUCGCUCAGUCCAGUGAUGUUGGAACAUAAAA [#OpenEnded 7] | 0.0662
UGAUACCAGACUGAUACCAGCUAGUGAUGUUAGCUGAAACAGGAACAGGCAAAGCCUGCUAGCCCUUGGCAGCAGUCUGGUAUCU [TheoBX 11 #SwitchBubble #StaticStem] | 0.0915
AGUUCUUGCCGAAGGAGCGAGGCAGAGUGAUGUUCUGCACGAGGUCGAAAGACCUCGCUGCCUCAGGUAGGUCGCGGCAUGAACA [Omei KL Arginine B Exc A v2] | 0.897
GCUCGGGAGUGAUGUUCCAAGUGGUGUUAACGAGGACCGGUACGGCCGCCACUCGAUACGGCCGGACCGUAGGAUAAACUGGAGC [Same State - Tryptophan A (Freestyle 12)] | 0.149
UUAUACUCAUGUAAAGAACUAGUAACCGAAGGAGCGACAUAAAAGUCAGGUAGGUCGCGGAUUUCUCAGUGAUGUUGAGAGCAUU [JR_SSArginiA_Sub012] | 0.109
AUCGUUGCCAUUAGGACAUACGGUCCUGAACGAGGACCGGUACGGCCGCCACUCGAGCACACGAGUGAUGUUCGUGGGCAACGAU [Tryp A SS t1] | 0.131
AUACGUUUAAGUGAUACCAGACAUGUGAGUGAUGUUUACAUAUAUAUUUAAUAUUUAGCUGUCCCUUGGCAGCACAGUUUAUUUA [JR_ExcTheophyB_Sub001] | 0.35
UUUAUGAUGUCGGCCGCCACUGGAUUAAUAUGUGUGUAAUCUAGUUCUGAGUGAUGUUUAGAGUCCAGGACCGGGACAUUAGUUA [#12 K4 Tryptophan B Exclusion] | 0.719
GGAUAUGUAACAGAUACCAGCCGACGACAGUCACUGUGUCAUGUAGUGAUGUUACAAUCUGGCCCUUGGCAGCUGUCUCUGGUUU [theeternabot_exclusion_KL_Theo_B_27] | 0.31
UGGACCUGACUCGAUAAGAGUCAAUGAGAUACCAGUGACGAAAGUCACCCUUGGCAGCUCAACUGCCAGUGAUGUUGGUGGUCCU [#SwitchBubble 2 #StaticStem] | 0.605
GAGCCAACCGUCGAUACCAGCCGCACGUCAUUCACUCAAUGCUGAGGAGCCAGUGAUGUUGGCCCUUGGCAGCGAAGCAACGAUC [theeternabot_exclusion_KL_Theo_B_43] | 0.0975
AUGUAUGAAUUAGGAUAUCGUGAUCCAUGCAUAUAUAUGAUAAAUGGAUAUGUCGUAGUGAUGUUACGAGAAGGAGUGUGGAGUA [KL-XFMN-B1] | 0.0626
UGACUACAAAAGGAAUAAUCCUAGUGAUGUUAGGAUAUGCUGAUAAGCAGAAGGAACGGAGAUCGAAAGAUCUCAUAUGUAGUCU [whbob_Ex_FMNA__2th192] | 0.141

Sequence | apparent KD of K4 kissing-loop reporter [µM]
GGGAUGUAGGGAAGGAGCGCUUUGCGAAUAUUAAUGAGUGAUGUUCGUAGAUAUUUGUAAUGGCAGGUAGGUCGCCCUAUAUCCC [Skye_SS_AB] | 0.197
GCCGUAGAUUGAAGGAGCGUGGACCUAUCGCUUGAACAGUGAUGUUGUUUAUCUAGGAAGCCGCAGGUAGGUCGCAAUCUACGGC | 0.331
AUAUCUGUUCGAAAGAACGGAUCUUCGGAAGGAGCGCGUGAAAACGCAGGUAGGUCGCCGAAGUUAUUAGGUAGUGAUGUUACCU [Arginine A K4 7] | 0.129
UGACUUGCCUGAGGAUAUCUAGGAUAUCCAUAAAAGGAAAUAAUAGUUCAGUGAUGUUGGAGAAGGAGAGAAGGCAGGUAAGUCU [KL-XFMN-B18 #DoubleAptamer #SwitchBubble] | 0.671
UUGACCAAAUUCCGGUGAUCAUCGCCGCCGCGAGGACCGGUACGGCCGCCACUCGUCCCUAUGCUCGGAGUAGUGAUGUUAUUCA [theeternabot_sameState_KL_Trp_A_43] | 0.557
CAACAUCACAACUUCUUCGUCCUAGAAGACUAGGAUAUCAGGAAACUGAGAAGGAGUCUCUGCAGUGAUGUUGCAGCUAGGACGA [[K]'-[F2]'-[F1]'-[F1]-[F2]-[K1]-[K2]-[F]''_Design2b] | 0.231
UGUAUGUGAUUUGAUACCAGACCAGCUGGUGGUAUCUGAGUGAUGUUCAGGUAGGUUUGGGUCCCUUGGCAGCAAAUCGCAUACU [KL-SSTheoB26] | 0.168
CACCAUGAAUUCUCUAGGAGUGAUGUUUUUCGAGGACCGGUACGGCCGCCACUCGGACGAGGACCGUGGGAGCGGCGAAGCGACU [wwegmullin] | 0.234
UCACGUGCCAGUGAUGUUGGCGUACGUGAUACCAGACGAAUAAAAGUCCCUUGGCAGCACAAAUAUGCCAAGUUAGAUGUAUGAU [Exclusion Theophylline A GF 2] | 0.125
GCCAGAGCGCGAAGGAGCGCCGUGACAGGUUACUGCCUUGGGCAGUGAUGUUGCUCAAUCUGGCAGGUAGGUCGCGUGCUCUGGC | 0.179
CACCAUGAAUUCUCUAGGAGUGAUGUUUUUCGAGGACCGGUACGGCCGCCACUCGGACGAGGAACGUGGGAGCGGCGAAAAGACU [xzzmullin] | 0.0706
GUGCGGCUAGUGAUGUUGGUUGCGUGGGAAGGAGCGCAGAAACAUGCAGGUAGGUCGCCCACACCUCUGAAAGAAGGUUAAUUCA [Biistian] | 0.218
CGCCACGACUGAAGGAGCGCGCCAGUGAUGUUGGACGGCUUUGUCAAGGAAACUGCACCGGUGCAGGUAGGUCGCAGUUCGUGGU [Quisbiri] | 0.398
GCGAAGAAGGUUGAUACCAGUCUUGCGUGUCAAGCGCCAGUGAUGUUGGGCCUGUAGAUCGACCCUUGGCAGCAACCUCGAAAUG [theeternabot_sameState_KL_Theo_B_28] | 0.836
UAAUUUAUUUCUUUUAUAUAAUAAUCAGAUACCAGUGAUUAAUGUCACCCUUGGCAGCUGUAUAGAGUGAUGUUCUAAUGCUUAA [JR_SSTheophyA_Sub022] | 0.176
GUUACGCAUGGAAGGAGCGCAGGCUCAACAAGUAGCUCAGUGAUGUUGAGCAUAUUAAUUCUGCAGGUAGGUCGCCAUGUGUAAC [Ex Arginine B K4 26] | 0.787

Same assay, conditions: Eterna round: R107; input ligand: arginine 13.2 mM

Sequence | apparent KD of K4 kissing-loop reporter [µM]
AGCAGGAGUGAUGUUCCUGUGGCAUAAGUUCGAGGACCGGUACGGCCGCCACUCGUAACAUUAAUCCGUCCUUGAUCAGAUAAGA [theeternabot_sameState_KL_Trp_A_12] | 0.186
AGGCACGAGCAAGGAUAUCGAGUAGAGUGAUGUUCUGCCUGGGUUGGCUCGGAAGAGCCUUCUCAGCGAGAAGGUGCUCGUGCCU [#2 Same State - FMN A Attempt #19 (HarryS)] | 0.604
GCAGUGAUGUUGCUGGUGUGCAGUGGUAGUCGAGGACCGGUACGGCCGCCACUCGGUGAGAACCUGCUAAUACAUCGAUAAGUGA [XVIII] | 0.369
AAGAGUUGACGAAAAGUCAACUCACGAGAAGGAGCGCACGAAAGUGCAGGUAGGUCGCUCAGUCCAGUGAUGUUGGAACAUAAAA [#OpenEnded 7] | 0.114
UGAUACCAGACUGAUACCAGCUAGUGAUGUUAGCUGAAACAGGAACAGGCAAAGCCUGCUAGCCCUUGGCAGCAGUCUGGUAUCU [TheoBX 11 #SwitchBubble #StaticStem] | 0.0906
AGUUCUUGCCGAAGGAGCGAGGCAGAGUGAUGUUCUGCACGAGGUCGAAAGACCUCGCUGCCUCAGGUAGGUCGCGGCAUGAACA [Omei KL Arginine B Exc A v2] | 0.504
GCUCGGGAGUGAUGUUCCAAGUGGUGUUAACGAGGACCGGUACGGCCGCCACUCGAUACGGCCGGACCGUAGGAUAAACUGGAGC [Same State - Tryptophan A (Freestyle 12)] | 0.11
UUAUACUCAUGUAAAGAACUAGUAACCGAAGGAGCGACAUAAAAGUCAGGUAGGUCGCGGAUUUCUCAGUGAUGUUGAGAGCAUU [JR_SSArginiA_Sub012] | 0.192
